Test [1] has as its target insulin/IGF-I hybrid receptor isoform A (Hybrid-RsA) (UniProt P08069). Nature of the test: displacement of 125I-IGF1 from immunocaptured Hybrid-RsA.
The target of test [2] is T1, extracellular domain of human insulin-like growth factor-1 receptor (hIGF-IR) (human, UniProt P08069 31-935).
T1 construct: extracellular domain; also called hIGF1-R; Human Insulin-Like Growth Factor I soluble Receptor (R & D Systems #391-GR)
Nature of the test: ELISA on coated soluble IGF-IR, cos7 supernatants. (In an ELISA, binding on a coated surface is turned into a signal by an enzyme label.)

The target of test [3] is T1, extracellular domain of human …. The experiment in a line: SPR (BIAcore X), antibody captured by anti-Fc on a CM5 chip, hIGF-IR extracellular domain as analyte at 12.5-200 nM, 25°C. (SPR reads the build-up and loss of mass on a sensor chip optically.)

This passage reports IC50, binding result and Kd results from patent publication WO2005058967A2 (dated 2005).

What is called IC50 is the concentration that inhibits the measured activity by half. A low value points to greater potency in that assay. Usually Kd stands for the equilibrium constant for the complex coming apart. The low end stands for tighter binding, the high end for weaker binding.

In test [1], monoclonal antibody 1H7 had an IC50 of under 50000 pM.

B1: humanized 7C10 VL 2 combined with humanized 7C10 VH 2 (antibody, human IgG1, V domains shown)
VH: QVQLQESGPGLVKPSETLSLTCTVSGYSITGGYLWNWIRQPPGKGLEWIGYISYDGTNNYKPSLKDRVTISRDTSKNQFSLKLSSVTAADTAVYYCARYGRVFFDYWGQGTLVTVSS
VL: DIVMTQSPLSLPVTPGEPASISCRSSQSIVHSNGNTYLQWYLQKPGQSPQLLIYKVSNRLYGVPDRFSGSGSGTDFTLKISRVEAEDVGVYYCFQGSHVPWTFGQGTKVEIK
notes: Human IgG1/kappa, cos7 supernatant; also called 7C10 hum 2 heavy chain with humanized 7C10 VL 2
As to B1, the binding result in test [2] is “binds”.

B2: A2CHM Mab (antibody, V domains shown)
VH: QVQLQESGPGLVKPSETLSLTCTVSGYSISGGYLWNWIRQPPGKGLEWIGYISYDGTNNYKPSLKDRVTISVDTSKNQFSLKLSSVTAADTAVYYCARYGRVFFDYWGQGTLVTVSS
VL: DIVMTQSPLSLPVTPGEPASISCRSSQSIVHSNGNTYLQWYLQKPGQSPQLLIYKVSNRLYGVPDRFSGSGSGTDFTLKISRVEAEDVGVYYCFQGSHVPWTFGQGTKVEIK
On to B2, for which binding in test [3] was put at a Kd of 860 pM.

B3: humanized 7C10 VL 2 combined with humanized 7C10 VH 3 (antibody, human IgG1, V domains shown)
VH: QVQLQESGPGLVKPSETLSLTCTVSGYSISGGYLWNWIRQPPGKGLEWIGYISYDGTNNYKPSLKDRVTISVDTSKNQFSLKLSSVTAADTAVYYCARYGRVFFDYWGQGTLVTVSS
VL: DIVMTQSPLSLPVTPGEPASISCRSSQSIVHSNGNTYLQWYLQKPGQSPQLLIYKVSNRLYGVPDRFSGSGSGTDFTLKISRVEAEDVGVYYCFQGSHVPWTFGQGTKVEIK
notes: Human IgG1/kappa, cos7 supernatant; also called 7C10 hum 3 heavy chain with humanized 7C10 VL 2
With B3, in test [2], the binding result is “binds”.
